Consider two molecules from patent US20120128689A1 (GlaxoSmithKline, published 2012).

Test [1] concerns the target T1, human IL-23 (human, UniProt Q9NPF7 20-189; P29460 23-328).
T1 sequence 1: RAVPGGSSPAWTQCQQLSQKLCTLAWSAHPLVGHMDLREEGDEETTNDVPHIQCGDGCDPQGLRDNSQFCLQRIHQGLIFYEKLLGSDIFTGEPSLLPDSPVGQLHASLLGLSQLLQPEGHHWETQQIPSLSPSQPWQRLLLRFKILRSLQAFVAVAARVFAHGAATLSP
T1 sequence 2: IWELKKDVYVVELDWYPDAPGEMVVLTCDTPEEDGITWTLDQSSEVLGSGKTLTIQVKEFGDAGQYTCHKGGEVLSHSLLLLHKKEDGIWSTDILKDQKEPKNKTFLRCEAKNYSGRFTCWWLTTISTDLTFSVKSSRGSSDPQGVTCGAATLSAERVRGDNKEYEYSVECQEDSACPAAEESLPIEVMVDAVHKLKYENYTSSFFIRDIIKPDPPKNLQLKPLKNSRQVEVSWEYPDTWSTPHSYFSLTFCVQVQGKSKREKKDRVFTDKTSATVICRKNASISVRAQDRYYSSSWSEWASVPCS
Kind of test: cell-based or functional assay.

For test [2], the target named is T2, cyno IL-23 (cyno, limits assumed).
T2 construct: Heterodimer of p19 and p40; also called cynomolgus IL-23
T2 chain 1: T1 sequence 1 with T12A, H75R, L131P
T2 chain 2: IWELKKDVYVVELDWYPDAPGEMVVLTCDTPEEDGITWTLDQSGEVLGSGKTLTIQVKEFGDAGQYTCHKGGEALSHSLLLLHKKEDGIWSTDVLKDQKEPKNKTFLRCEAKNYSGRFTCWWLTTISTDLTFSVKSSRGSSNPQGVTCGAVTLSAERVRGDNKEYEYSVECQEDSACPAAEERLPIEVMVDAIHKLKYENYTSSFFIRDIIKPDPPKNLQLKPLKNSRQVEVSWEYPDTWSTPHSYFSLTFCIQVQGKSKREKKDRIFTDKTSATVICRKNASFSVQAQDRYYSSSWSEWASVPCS
The test can be described thus: SPR Biacore, purified mAb captured on anti-human IgG, cyno IL-23 64-0.062 nM. How it is done:
(§1) An anti-human IgG (Biacore BR-1008-39) was immobilised on a Biacore CM5 chip by primary amine coupling in accordance with the manufacturer's instructions. Anti IL-23 antibodies were captured on this surface and after a period of stabilisation, IL-23 (cyno or human) was passed over the antibody captured surface and a binding sensorgram was obtained. […] All runs were double referenced with a buffer injection over the captured antibody surface. Data was analysed using the 1:1 model using the software inherent to the Biacore T100. Analysis was carried out at 25° C. using HBS-EP buffer. Data presented in Tables 1 and 2 are on tissue culture supernatants of HEK cells transiently expressing the antibody of interest unless otherwise indicated.
(§2) This experiment was repeated with purified IL-23 antibodies and data shown in Table 3 was generated using 64, 16, 4, 1, 0.25 and 0.062 nM concentrations of human and cyno IL-23.

Test [3] has as its target T1, human IL-23. The test can be described thus: SPR Biacore, purified mAb captured on anti-human IgG, human IL-23 64-0.062 nM. How it is done: as §1, §2
(In general: In SPR one partner is held on a chip, and binding of the other changes the refractive index at the surface.)

The target of test [4] is T1, human IL-23. Kind of test: SPR Biacore T100, purified mAb captured on anti-human IgG, human IL-23 64-0.062 nM.
The target in test [5] is T1, human IL-23. Kind of test: SPR Biacore T100, mAb from HEK supernatant captured on anti-human IgG, human IL-23 64-0.062 nM. The procedure:
as §1

Test [6] has as its target T2, cyno IL-23. Kind of test: SPR Biacore T100, purified mAb captured on anti-human IgG, one concentration of cyno IL-23 (256 nM).
For test [7], the target named is T2, cyno IL-23. The test can be described thus: SPR Biacore T100, mAb from HEK supernatant captured on anti-human IgG, one concentration of cyno IL-23 (256 nM). The procedure:
as §1

Test [8] concerns the target T1, human IL-23. The test can be described thus: inhibition ELISA: antibody pre-incubated with a constant concentration of human IL-23, IL-23 bound to plate-coated human IL23R Fc chimera detected with biotinylated anti-human IL12, OD450. The procedure:
Plates were coated with human IL23R Fc chimera at […] (phosphate buffered saline). 50 μl/well of this mixture was incubated overnight at 4° C. The plates were then washed three times with Phosphate Buffered Saline with 0.05% Tween 20 (PBST). Plates were blocked with 4% skim milk powder (Fluka BioChemika #70166) PBST 100 μl/well for a minimum of 1 hour at room temperature. The plates were then washed three times with Phosphate Buffered Saline+0.05% Tween 20 (PBST). Various concentrations of antibody were incubated in a separate plate with a constant concentration of IL-23 for 1 hour at room temperature. 50 ul of each mixture were transferred to the assay plate and incubated at RT for 1 hr. They were then washed three times with Phosphate Buffered Saline+0.05% Tween 20 (PBST). Bound IL23 was detected by anti human IL12 Biotin labelled Ab (R&D systems BAF219) diluted to 100 ng/ml in 4% skim milk powder (Fluka BioChemika #70166) PBST. 50 μl/well of the biotinylated antibody was added and incubated at RT for 1 hour. The plates were then washed three times with Phosphate Buffered Saline+0.05% Tween 20 (PBST). SA HRP (GE healthcare RPN4401) was diluted 1/4000 in 4% skim milk powder (Fluka BioChemika #70166) PBS, 50 μl/well was added to the plates. The plates were then washed three times with Phosphate Buffered Saline+0.05% Tween 20 (PBST). 50 ul/well of TMB was added to the plates and incubated at RT for 15 min. 25 μl/well of 3 MH₂SO₄ was added to the wells already containing TMB. The plate was read at OD450 nm using the SOftmaxPRO versamax plate reader.
A general note: ELISA stands for enzyme-linked immunosorbent assay.

Changes are numbered by the printed parent chain.

B1: A3M0 (antibody, human IgG1, kappa, V domains shown)
VH: QVQLVQSGAEVKKPGSSVKVSCKASGYTFTSYGITWVRQAPGQGLEWMGENYPRSGNTYYNEKFKGRVTITADKSTSTAYMELSSLRSEDTAVYYCARSEFISTVVAPYYYALDYWGQGTLVTVSS
VL: DIVMTQSPDSLAVSLGERATINCKASKKVTIFGSISALHWYQQKPGQPPKLIYNGAKLESGVPDRFSGSGSGTDFTLTISSLQAEDVAVYYCLQNKEVPYTFGGGTKVEIKR
notes: human gamma1 and kappa constant regions; Tested as HEK supernatant and as purified antibody; also called A3M0 purified
In the case of B1, in the test with human IL-23 [1], the “IC50 (inhibition of IL-23 driven STAT3 phosphorylation in human activated T cell blasts)” value came to 0.115 nM. Moreover, the Kd with cyno IL-23 [2] was 0.302 nM; with human IL-23 [3], 0.186 nM; with human IL-23 [4], 0.197 nM; in the test with human IL-23 [5] it was 0.207 nM; with cyno IL-23 [6], 0.332 nM; in the test with cyno IL-23 [7] it was 0.365 nM. For the same molecule, the koff was 0.000298 s⁻¹ in the test with cyno IL-23 [2]; 0.000216 s⁻¹ with human IL-23 [3]; 0.000235 s⁻¹ with human IL-23 [4]; 0.000239 s⁻¹ with human IL-23 [5]; 0.000583 s⁻¹ with cyno IL-23 [6]; 0.000484 s⁻¹ in the test with cyno IL-23 [7]. The on-rate constant (kon) came out at 984000 M⁻¹ s⁻¹ with cyno IL-23 [2]; 1.16e+06 M⁻¹ s⁻¹ with human IL-23 [3]; 1.19e+06 M⁻¹ s⁻¹ with human IL-23 [4]; 1.16e+06 M⁻¹ s⁻¹ with human IL-23 [5]; 1.76e+06 M⁻¹ s⁻¹ in the test with cyno IL-23 [6]; 1.33e+06 M⁻¹ s⁻¹ with cyno IL-23 [7]. Also, the “IC50 (read off the curve)” value in the test with human IL-23 [8] is about 0.7 nM.

B2: A24AM18 (antibody, human IgG1, kappa, V domains shown)
VH: B1 VH with T58I, S99A
VL: B1 VL with I35T, G55L, L58P
B2: the “IC50 (inhibition of IL-23 driven STAT3 phosphorylation in human activated T cell blasts)” value with human IL-23 [1] was 0.0473 nM. The Kd in the test with cyno IL-23 [2] was determined as 0.07 nM; with human IL-23 [3], 0.053 nM; in the test with human IL-23 [5], 0.051 nM; in the test with cyno IL-23 [7], 0.092 nM. For the same molecule, the koff in the test with cyno IL-23 [2] is 0.000132 s⁻¹; with human IL-23 [3], 0.000115 s⁻¹; in the test with human IL-23 [5], 0.000122 s⁻¹; with cyno IL-23 [7] it was 0.000176 s⁻¹. In addition, the kon with cyno IL-23 [2] was 1.88e+06 M⁻¹ s⁻¹; with human IL-23 [3] it was 2.16e+06 M⁻¹ s⁻¹; with human IL-23 [5], 2.4e+06 M⁻¹ s⁻¹; in the test with cyno IL-23 [7], 1.91e+06 M⁻¹ s⁻¹. In addition, the “IC50 (read off the curve)” value with human IL-23 [8] is about 0.2 nM.

For orientation: Kd means the equilibrium constant for the complex coming apart. A low value points to higher affinity. Broadly, the koff is a measure of how fast the partners let go of each other. What is called kon is a measure of how fast the partners come together. A higher kon goes with faster complex formation.
